Results as given in patent US20170305975A1 (PROCLARA BIOSCIENCES, published 2017).
Numbering of substitutions follows the chain as printed. Where two headings read alike, the source gives them in different places.

Assays:
[1] = biological target: T1, amyloid-β 1-42 fibers (fAβ42) (human, UniProt P05067 672-713); assay: competition with M13-Alexa488 for fAβ, fiber sedimentation assay
T1 construct: domain: amyloid-β 1-42; also called Aβ fibrils; Aβ fibers

[2] = biological target: T1, amyloid-β 1-42 fibers (fAβ42); assay: SPR on Aβ fibrils, 25° C.
[3] = biological target: T1, amyloid-β 1-42 fibers (fAβ42); assay: SPR, 4 µM rs-g3p(N1N2) on Aβ fibrils
[4] = biological target: T1, amyloid-β 1-42 fibers (fAβ42); assay: SPR, Aβ42 fibers immobilized on a CM3 surface, about 2 µM analyte at 5 µl/min
[5] = biological target: T1, amyloid-β 1-42 fibers (fAβ42); assay: cell-based or functional assay
[6] = biological target: T1, amyloid-β 1-42 fibers (fAβ42); assay: SPR on Aβ fibrils, analyte preheated at 37° C.
[7] = biological target: T1, amyloid-β 1-42 fibers (fAβ42); assay: competition with labeled M13 for binding to Aβ, 45 minutes at 37 °C; phage with or without pre-activation at 50 °C for 1.5 hours
[8] = biological target: T1, amyloid-β 1-42 fibers (fAβ42); assay: SPR, calculated from the data of FIG. 3A
[9] = biological target: T1, amyloid-β 1-42 fibers (fAβ42); assay: SPR on Aβ fibrils
[10] = biological target: T1, amyloid-β 1-42 fibers (fAβ42)
[11] = biological target: T1, amyloid-β 1-42 fibers (fAβ42); assay: SPR, 10^14 phage/mL over immobilized fAβ
[12] = biological target: tau fibers (ftau); assay: SPR, Construct 4 on ftau

T1 sequence (P05067 672-713 limits assumed): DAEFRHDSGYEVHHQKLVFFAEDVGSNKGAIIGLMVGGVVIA

B1: If1N1N2 g3p (without Fc domain) (other)
chain: ATTDAECLSKPAFDGTLSNVWKEGDSRYANFENCIYELSGIGIGYDNDTSWNGHWTPVRAADGSGNGGDDNSSGGGSNGDSGNNSTPDTVTPGQTVNLPSDLSTLSIPANVVKSDSIGSQFSLYTNASCTMCSGYYLSNNADSIAIANITETVKADYNQPDMWFEQTDSDGNHVKILQNSYKAVSYNVESKQSDVNNPTYINYSYSVNVKQVSYDTSNVCIMNWETFQNKCDASRAVLITDTVTPSYSRNITIQSNINYQGSNGSGGSGGSGGSG
- fold better binding than M13 N1N2 g3p [1]: ~4 fold

B2: recombinant soluble N1N2 fragment of g3p, rs-g3p(N1N2) (Construct 3) (other)
chain: MAETVESCLAKSHTENSFTNVWKDDKTLDRYANYEGCLWNATGVVVCTGDETQCYGTWVPIGLAIPENEGGGSEGGGSEGGGSEGGGTKPPEYGDTPIPGYTYINPLDGTYPPGTEQNPANPNPSLEESQPLNTFMFQNNRFRNRQGALTVYTGTVTQGTDPVKTYYQYTPVSSKAMYDAYWNGKFRDCAFHSGFNEDLFVCEYQGQSSDLPQPPVNAPSGHHHHHH
notes: also called monomer; monomeric g3p
- Kd [2]: 150 nM
- koff [2]: 0.00024 s⁻¹
- kon [2]: 1500 M⁻¹ s⁻¹
- Kd [3]: ~160 nM
- Kd [4]: ~150 nM
- IC50 of inhibition of Aβ42 fiber formation, ThT fluorescence (10 µM Aβ42 monomers, 37° C., 3 days) [5]: ~20 nM
- Kd [6]: 50 nM
- koff [6]: 0.0002 s⁻¹
- kon [6]: 4100 M⁻¹ s⁻¹

B3: phage fd (wild type) (other)
chain: AETVESCLAKPHTENSFTNVWKDDKTLDRYANYEGCLWNATGVVVCTGDETQCYGTWVPIGLAIPENEGGGSEGGGSEGGGSEGGGTKPPEYGDTPIPGYTYINPLDGTYPPGTEQNPANPNPSLEESQPLNTFMFQNNRFRNRQGALTVYTGTVTQGTDPVKTYYQYTPVSSKAMYDAYWNGKFRDCAFHSGFNEDPFVCEYQGQSSDLPQPPVNAGGGSGGGSGGGSEGGGSEGGGSEGGGSEGGGSGGGSGSGDFDYEKMANANKGAMTENADENALQSDAKGKLDSVATDYGAAIDGFIGDVSGLANGNGATGDFAGSNSQMAQVGDGDNSPLMNNFRQYLPSLPQSVECRPYVFGAGKPYEFSIDCDKINLFRGVFAFLLYVATFMYVFSTFANILRNKES
- binding result [7]: binds

B4: M13 phage (construct not stated) (other)
chain: B3 chain with Y357F, G360S
notes: also called wild type M13; labeled M13
- Kd [8]: 3.59 nM

B5: M13 phage (Construct 1) (other)
chain: B3 chain with Y357F
- Kd [9]: 3.59 nM
- koff [9]: 9.2e-06 s⁻¹
- kon [9]: 2600 M⁻¹ s⁻¹
- Kd [10]: ~7 nM
- Kd [11]: ~4 nM

B6: rs-g3p(N1N2)-hIgG4-Fc fusion protein (Construct 4) (Fc fusion)
chain: MAETVESCLAKPHTENSFTNVWKDDKTLDRYANYEGCLWNATGVVVCTGDETQCYGTWVPIGLAIPENEGGGSEGGGSEGGGSEGGGTKPPEYGDTPIPGYTYINPLDGTYPPGTEQNPANPNPSLEESQPLNTFMFQNNRFRNRQGALTVYTGTVTQGTDPVKTYYQYTPVSSKAMYDAYWNGKFRDCAFHSGFNEDPFVCEYQGQSSDLPQPPVNAGGGSGGGSGGGSEGGGSEGGGSEGGGSEGGGSGGGSGSGAMVRSPPCPSCPAPEFLGGPSVFLFPPKPKDTLMISRTPEVTCVVVDVSQEDPEVQFNWYVDGVEVHNAKTKPREEQFNSTYRVVSVLTVLHQDWLNGKEYKCKVSNKGLPSSIEKTISKAKGQPREPQVYTLPPSQEEMTKNQVSLTCLVKGFYPSDIAVEWESNGQPENNYKTTPPVLDSDGSFFLYSRLTVDKSRWQEGNVFSCSVMHEALHNHYTQKSLSLSPGK
notes: also called rs-g3p(N1N2)-Ig fusion; bivalent rs-g3p(N1N2)-Ig fusion
- Kd [2]: 7.32 nM
- koff [2]: 0.000128 s⁻¹
- kon [2]: 17500 M⁻¹ s⁻¹
- Kd [12]: 62.9 nM

B7: rs-g3p(N1N2)-hIgG4-Fc fusion protein (Construct 5) (Fc fusion)
chain: B6 chain with V156F
- Kd [2]: 10.9 nM
- koff [2]: 0.000166 s⁻¹
- kon [2]: 15200 M⁻¹ s⁻¹
